From US20260167721A1 (ABLEXIS, published 2026)

Columns and labels:
[1] = target: T1, human CD3 (TCR/CD3 complex) on the cell surface (human, UniProt P07766 23-207; P09693 23-182; P04234 22-171; P20963 22-164); assay: flow cytometry, Pan-T cells, 1 ug/mL
T1 construct: whole, on cells; also called CD3 on Pan-T cells; CD3 on Jurkat WT cells

[2] = target: T1, human CD3 (TCR/CD3 complex) on the cell …; assay: flow cytometry, Pan-T cells, 10 ug/mL
[3] = target: T1, human CD3 (TCR/CD3 complex) on the cell …; assay: flow cytometry, Jurkat WT cells, 1 ug/mL
[4] = target: T1, human CD3 (TCR/CD3 complex) on the cell …; assay: flow cytometry, Jurkat WT cells, 10 ug/mL
[5] = target: T1, human CD3 (TCR/CD3 complex) on the cell …; assay: flow cytometry, gMFI Jurkat WT over Jurkat TCRb KO, 1 ug/mL
[6] = target: T1, human CD3 (TCR/CD3 complex) on the cell …; assay: flow cytometry, gMFI Jurkat WT over Jurkat TCRb KO, 10 ug/mL
recombinant CD3 proteins [7] = target: T2, recombinant CD3 proteins (UniProt P07766 23-126); assay: Octet BLI, recombinant CD3; Full R^2 0.997
T2 construct: elsewhere it uses human CD3 E/D and E/G heterodimers
T2 sequence (P07766 23-126): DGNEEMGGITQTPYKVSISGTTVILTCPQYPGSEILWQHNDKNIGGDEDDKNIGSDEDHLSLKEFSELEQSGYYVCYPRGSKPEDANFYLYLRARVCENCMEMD

recombinant CD3 proteins [8] = target: T2, recombinant CD3 proteins; assay: Octet BLI, recombinant CD3; Full R^2 0.000*

T1 sequence (P07766 23-207, chain 1 of 4): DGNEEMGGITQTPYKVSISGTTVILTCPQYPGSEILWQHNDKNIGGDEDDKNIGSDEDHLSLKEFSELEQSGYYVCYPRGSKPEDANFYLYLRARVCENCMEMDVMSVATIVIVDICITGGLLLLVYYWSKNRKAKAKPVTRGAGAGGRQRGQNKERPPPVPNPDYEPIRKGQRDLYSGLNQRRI
T1 sequence (P09693 23-182, chain 2 of 4): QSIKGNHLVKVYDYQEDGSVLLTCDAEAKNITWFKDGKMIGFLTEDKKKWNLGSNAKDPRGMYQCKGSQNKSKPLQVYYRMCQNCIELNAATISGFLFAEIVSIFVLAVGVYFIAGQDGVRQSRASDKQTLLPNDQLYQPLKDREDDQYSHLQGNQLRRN
T1 sequence (P04234 22-171, chain 3 of 4): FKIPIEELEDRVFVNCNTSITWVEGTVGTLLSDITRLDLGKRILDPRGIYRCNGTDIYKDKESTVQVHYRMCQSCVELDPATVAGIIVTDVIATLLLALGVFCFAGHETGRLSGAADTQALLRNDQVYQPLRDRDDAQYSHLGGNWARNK
T1 sequence (P20963 22-164, chain 4 of 4): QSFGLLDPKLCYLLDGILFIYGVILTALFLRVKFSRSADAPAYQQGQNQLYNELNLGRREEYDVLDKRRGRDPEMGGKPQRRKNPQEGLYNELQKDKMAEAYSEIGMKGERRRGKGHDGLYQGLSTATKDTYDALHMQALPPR

B1: Gemtuzumab (antibody, V domains shown)
VH: EVQLVQSGAEVKKPGSSVKVSCKASGYTITDSNIHWVRQAPGQSLEWIGYIYPYNGGTDYNQKFKNRATLTVDNPTNTAYMELSSLRSEDTAFYYCVNGNPWLAYWGQGTLVTVSS
VL: DIQLTQSPSTLSASVGDRVTITCRASESLDNYGIRFLTWFQQKPGKAPKLLMYAASNQGSGVPSRFSGSGSGTEFTLTISSLQPDDFATYYCQQTKEVPWSFGQGTKVEVKR
notes: also called anti-CD33 control
Q: What does the source list for B1?
A: % Positive [1]: 1.2%; gMFI [1]: 1770 gMFI; % Positive [2]: 0.7%; gMFI [2]: 1680 gMFI; gMFI [3]: 1650 gMFI; gMFI [4]: 1690 gMFI; Jurkat WT/KO (Fold) [5]: 0.9 fold; Jurkat WT/KO (Fold) [6]: 0.9 fold

B2: CD3 × CD33-BspAb79 (bispecific antibody)
chain 1: QVQLQESGPGLVKPSETLSLTCTVSGGSISSYYWSWIRQPAGKCLEWIGRIYASGSTYYNPSLKSRVTMSVDTSKNQFSLKLSSVTAADTAVYYCAREKRSRLYFDYWGQGTLVTVSSGGGGSGGGGSGGGGSGGGGSNFMLTQPHSVSESPGKTVTISCTRSSGSIASNYVQWYQQRPGSSPTTVIYEDNQRPSGVPDRFSGSIDSSSNSASLTISGLKTEDEGDYYCQSYDRSNRVFGCGTKLTVLDKTHTCPPCPAPEFEGGPSVFLFPPKPKDTLMISRTPEVTCVVVDVSHEDPEVKFNWYVDGVEVHNAKTKPREEQYNSTYRVVSVLTVLHQDWLNGKEYKCKVSNKALPASIEKTISKAKGQPREPQVYTLPPCREEMTKNQVSLWCLVKGFYPSDIAVEWESNGQPENNYKTTPPVLDSDGSFFLYSKLTVDKSRWQQGNVFSCSVMHEALHNHYTQKSLSLSPGK
chain 2: EVQLVQSGAEVKKPGSSVKVSCKASGYTITDSNIHWVRQAPGQSLEWIGYIYPYNGGTDYNQKFKNRATLTVDNPTNTAYMELSSLRSEDTAFYYCVNGNPWLAYWGQGTLVTVSSASTKGPSVFPLAPSSKSTSGGTAALGCLVKDYFPEPVTVSWNSGALTSGVHTFPAVLQSSGLYSLSSVVTVPSSSLGTQTYICNVNHKPSNTKVDKRVEPKSCDKTHTCPPCPAPEFEGGPSVFLFPPKPKDTLMISRTPEVTCVVVDVSHEDPEVKFNWYVDGVEVHNAKTKPREEQYNSTYRVVSVLTVLHQDWLNGKEYKCKVSNKALPASIEKTISKAKGQPREPQVCTLPPSREEMTKNQVSLSCAVKGFYPSDIAVEWESNGQPENNYKTTPPVLDSDGSFFLVSKLTVDKSRWQQGNVFSCSVMHEALHNRFTQKSLSLSPGK
chain 3: DIQLTQSPSTLSASVGDRVTITCRASESLDNYGIRFLTWFQQKPGKAPKLLMYAASNQGSGVPSRFSGSGSGTEFTLTISSLQPDDFATYYCQQTKEVPWSFGQGTKVEVKRTVAAPSVFIFPPSDEQLKSGTASVVCLLNNFYPREAKVQWKVDNALQSGNSQESVTEQDSKDSTYSLSSTLTLSKADYEKHKVYACEVTHQGLSSPVTKSFNRGEC
Q: With B2 as the binder, how does the Kd (recombinant CD3 proteins [7]) read?
A: 456 nM

Q: And the koff (recombinant CD3 proteins [7])?
A: 0.0829 s⁻¹

Q: What about the kon (recombinant CD3 proteins [7]) of the same binder?
A: 182000 M⁻¹ s⁻¹

B3: CD3 × CD33-BspAb124 (bispecific antibody)
chain 1: not shown
chain 2: EVQLVQSGAEVKKPGSSVKVSCKASGYTITDSNIHWVRQAPGQSLEWIGYIYPYNGGTDYNQKFKNRATLTVDNPTNTAYMELSSLRSEDTAFYYCVNGNPWLAYWGQGTLVTVSSASTKGPSVFPLAPSSKSTSGGTAALGCLVKDYFPEPVTVSWNSGALTSGVHTFPAVLQSSGLYSLSSVVTVPSSSLGTQTYICNVNHKPSNTKVDKRVEPKSCDKTHTCPPCPAPEFEGGPSVFLFPPKPKDTLMISRTPEVTCVVVDVSHEDPEVKFNWYVDGVEVHNAKTKPREEQYNSTYRVVSVLTVLHQDWLNGKEYKCKVSNKALPASIEKTISKAKGQPREPQVCTLPPSREEMTKNQVSLSCAVKGFYPSDIAVEWESNGQPENNYKTTPPVLDSDGSFFLVSKLTVDKSRWQQGNVFSCSVMHEALHNRFTQKSLSLSPGK
chain 3: DIQLTQSPSTLSASVGDRVTITCRASESLDNYGIRFLTWFQQKPGKAPKLLMYAASNQGSGVPSRFSGSGSGTEFTLTISSLQPDDFATYYCQQTKEVPWSFGQGTKVEVKRTVAAPSVFIFPPSDEQLKSGTASVVCLLNNFYPREAKVQWKVDNALQSGNSQESVTEQDSKDSTYSLSSTLTLSKADYEKHKVYACEVTHQGLSSPVTKSFNRGEC
Q: How did the Kd (recombinant CD3 proteins [8]) turn out when B3 was run?
A: < 0.001 nM

Q: What about the koff (recombinant CD3 proteins [8]) of the same binder?
A: < 1e-07 s⁻¹

Q: What about the kon (recombinant CD3 proteins [8]) of the same binder?
A: 12500 M⁻¹ s⁻¹

B4: CD3 × CD33-BspAb116 (bispecific antibody)
chain 1: NFMLTQPHSVSESPGKTVTISCTRSSGSIASNYVQWYQQRPGSSPTTVIYEDNQRPSGVPDRFSGSIDSSSNSASLTISGLKTEDEAYYYCQSFDSSNRVFGCGTKLTVLGGGGSGGGGSGGGGSGGGGSQVQLQESGPGLVKPSQTLSLTCTVSGGSISSGGYYWSWIRQHPGKCLEWIGYIYYSGSTYYNPSLKSRVTISVDTSKDQFSLKLSSVTAADTAVYYCARERKTSLPFDIWGQGTMVTVSSDKTHTCPPCPAPEFEGGPSVFLFPPKPKDTLMISRTPEVTCVVVDVSHEDPEVKFNWYVDGVEVHNAKTKPREEQYNSTYRVVSVLTVLHQDWLNGKEYKCKVSNKALPASIEKTISKAKGQPREPQVYTLPPCREEMTKNQVSLWCLVKGFYPSDIAVEWESNGQPENNYKTTPPVLDSDGSFFLYSKLTVDKSRWQQGNVFSCSVMHEALHNHYTQKSLSLSPGK
chain 2: EVQLVQSGAEVKKPGSSVKVSCKASGYTITDSNIHWVRQAPGQSLEWIGYIYPYNGGTDYNQKFKNRATLTVDNPTNTAYMELSSLRSEDTAFYYCVNGNPWLAYWGQGTLVTVSSASTKGPSVFPLAPSSKSTSGGTAALGCLVKDYFPEPVTVSWNSGALTSGVHTFPAVLQSSGLYSLSSVVTVPSSSLGTQTYICNVNHKPSNTKVDKRVEPKSCDKTHTCPPCPAPEFEGGPSVFLFPPKPKDTLMISRTPEVTCVVVDVSHEDPEVKFNWYVDGVEVHNAKTKPREEQYNSTYRVVSVLTVLHQDWLNGKEYKCKVSNKALPASIEKTISKAKGQPREPQVCTLPPSREEMTKNQVSLSCAVKGFYPSDIAVEWESNGQPENNYKTTPPVLDSDGSFFLVSKLTVDKSRWQQGNVFSCSVMHEALHNRFTQKSLSLSPGK
chain 3: DIQLTQSPSTLSASVGDRVTITCRASESLDNYGIRFLTWFQQKPGKAPKLLMYAASNQGSGVPSRFSGSGSGTEFTLTISSLQPDDFATYYCQQTKEVPWSFGQGTKVEVKRTVAAPSVFIFPPSDEQLKSGTASVVCLLNNFYPREAKVQWKVDNALQSGNSQESVTEQDSKDSTYSLSSTLTLSKADYEKHKVYACEVTHQGLSSPVTKSFNRGEC
Q: With B4 as the binder, how does the Kd (recombinant CD3 proteins [7]) read?
A: 163 nM

Q: And the koff (recombinant CD3 proteins [7])?
A: 0.0168 s⁻¹

Q: What about the kon (recombinant CD3 proteins [7]) of the same binder?
A: 103000 M⁻¹ s⁻¹
